Experiments:
human IL-1β-His-Bio [1] = target: T1, human IL-1β-His-Bio (human, UniProt P01584 117-269, limits assumed, biotinylated with EZ-Link Sulfo-NHS-LC-Biotinylation Kit (sites not given)); experiment: ELISA, IL-1β-His-Bio captured on streptavidin; 4-parameter fit
T1 construct: also called biotinylated human IL-1β-His; not shown: His tag

human IL-1β-His-Bio [2] = target: T1, human IL-1β-His-Bio; experiment: ELISA, IL-1β-His-Bio captured on streptavidin; antibody 0.012 µg/mL
Protocol: A plate was coated with 50 μL of 2 μg/mL SA (streptavidin) in each well, and incubated overnight at 4° C. After the plate was washed once and the residual liquid was removed, each well was blocked with 300 μL of 1% BSA solution (dissolved in PBS) and the plate was incubated at 37° C. for 2 h. The plate was washed three times and the residual liquid was removed. Human IL-1β-His-Bio in each well was diluted with 50 μL of PBST to 0.2 μg/mL, and the plate was incubated at 37° C. for 30 min. Then the plate was washed three times and the residual liquid was removed. […] Two duplicate wells were set for the above concentrations, with a final volume of 100 μL per well, and the plate was incubated at 37° C. for 30 min. […] After the plate was washed four times and the residual liquid was removed, 50 μL of TMB chromogenic solution was added to each well for color developing for 5 min away from light at room temperature, then 50 μL of stop solution was added to each well to stop the reaction. Then the plate was put into a plate reader immediately, and the OD value of each well in the plate was read at 450 nm.
SoftMax Pro 6.2.1 software was used to analyze and process the data. 4-parameter fitted curves were plotted using the antibody concentration as the abscissa and the absorbance as the ordinate.

human IL-1β-hFc = target: T2, human IL-1β-hFc (human, UniProt P01584 117-269, limits assumed); experiment: competition ELISA on coated IL-1β-hFc, competitor IL-1R1(1-332)-his; 4-parameter fit
T2 construct: also called human IL-1f3-hFc [sic]; not shown: human IgG Fc purification tag

EC50 (human IL-1β-His-Bio [1]): 99 pM
OD (450 nm) (human IL-1β-His-Bio [2]): 1.23 OD450
EC50 (human IL-1β-hFc): 137 pM
B1: anti-IL-1β murine monoclonal antibody 3H6 (antibody, V domains shown)
VH: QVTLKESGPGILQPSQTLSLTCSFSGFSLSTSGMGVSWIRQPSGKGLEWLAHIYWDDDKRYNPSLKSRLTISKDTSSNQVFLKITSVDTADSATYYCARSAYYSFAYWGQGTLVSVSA
VL: DIVMTQSHKFMSTSVGGRVRITCKASQDVDTDVAWFQQKPGQSPKLLIYWASTRHTGVPDRFTGSGSGTDFTLTISNVQSEDLADYFCQQYSSYPTFGAGTKLELK
notes: Mouse monoclonal antibody purified from hybridoma supernatant on protein A; also called antibody secreted by hybridoma cell line LT010 (IL-1β-3H6), CCTCC NO: C2018133
